Results published in PMC5419741, “La-related protein 1 (LARP1) binds the mRNA cap, blocking eIF4F assembly on TOP mRNAs”.

How the values were obtained:
[1] = target: T1, LARP1 DM15 (Homo sapiens, UniProt Q6PKG0-3 796-946); experiment: EMSA; Competition assays: 20 mM Tris pH 8, 150 mM NaCl, 10% glycerol, 1 mM DTT, 0.5 ug BSA, 0.5 ug tRNA, 30 min on ice, native gel; EMSA as in Lahr et al. 2015 with RNA <=200 pM; details: protein: recombinant
[2] = target: eIF4E (Homo sapiens, UniProt P06730 1-217); experiment: competition; outcompetes DM15 as pre-bound or competitor protein; Competition assays: 20 mM Tris pH 8, 150 mM NaCl, 10% glycerol, 1 mM DTT, 0.5 ug BSA, 0.5 ug tRNA, 30 min on ice, native gel; EMSA as in Lahr et al. 2015 with RNA <=200 pM; details: protein: recombinant; tags: His6-MBP removed by TEV; label: 32P in cap
Sequence of eIF4E (P06730 whole entry): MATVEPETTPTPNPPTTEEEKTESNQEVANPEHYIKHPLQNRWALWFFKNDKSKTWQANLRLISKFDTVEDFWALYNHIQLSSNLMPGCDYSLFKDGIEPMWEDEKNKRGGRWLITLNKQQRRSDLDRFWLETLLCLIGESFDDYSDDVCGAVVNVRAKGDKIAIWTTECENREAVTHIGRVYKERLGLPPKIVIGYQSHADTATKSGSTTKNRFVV

[3] = target: T1, LARP1 DM15; experiment: crystal structure; Competition assays: 20 mM Tris pH 8, 150 mM NaCl, 10% glycerol, 1 mM DTT, 0.5 ug BSA, 0.5 ug tRNA, 30 min on ice, native gel; EMSA as in Lahr et al. 2015 with RNA <=200 pM; details: protein: recombinant

B1: G-RPS6 (uncapped non-TOP) (ssRNA)
RNA: GCCUCUUUUCCGUGGCGCCUCGGAGGCGUUCAGCUGCUUCAAG
[1]; label: 5' 32P
  Kd: 7500 nM

B2: m7Gppp-G-RPS6 (capped non-TOP) (ssRNA)
RNA: B1 RNA
modifications: 5' m7Gppp cap
[1]; label: 32P in cap
  Kd: 2000 nM
[2]
  binding result: binds

B3: m7Gppp-RPS6 42mer (capped TOP) (ssRNA)
RNA: CCUCUUUUCCGUGGCGCCUCGGAGGCGUUCAGCUGCUUCAAG
modifications: 5' m7Gppp cap
[1]; label: 32P in cap
  Kd: 21 nM

B4: RPS6 8mer (ssRNA)
RNA: CUUUUCCG
[3]
  binding result: binds

B5: m7Gppp-RPL32 42mer (ssRNA)
RNA: CUCUCUUCCUCGGCGCUGCCUACGGAGGUGGCAGCCAUCUCC
modifications: 5' m7Gppp cap
[1]; label: 32P in cap
  binding result: binds
